Assay results from patent US20120276092A1.

Molecular target: polyhistidine-tagged human FcRn (human) (UniProt P55899)
Experiment: AlphaScreen competition, pH 6.0, against biotinylated human IgG1 mAb CNTO 6234 on polyHis human FcRn

polyhistidine-tagged human FcRn (human), sequence (P55899 24-297 limits assumed, chain 1 of 2): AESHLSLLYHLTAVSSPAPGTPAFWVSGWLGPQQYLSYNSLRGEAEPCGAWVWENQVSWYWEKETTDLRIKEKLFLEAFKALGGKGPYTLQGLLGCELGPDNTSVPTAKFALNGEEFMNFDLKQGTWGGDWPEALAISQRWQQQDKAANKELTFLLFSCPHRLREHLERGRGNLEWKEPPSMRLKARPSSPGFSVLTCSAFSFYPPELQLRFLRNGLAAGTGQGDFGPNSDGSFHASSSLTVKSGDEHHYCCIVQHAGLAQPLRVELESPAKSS
polyhistidine-tagged human FcRn (human), sequence (P61769 21-119 limits assumed, chain 2 of 2, further chain): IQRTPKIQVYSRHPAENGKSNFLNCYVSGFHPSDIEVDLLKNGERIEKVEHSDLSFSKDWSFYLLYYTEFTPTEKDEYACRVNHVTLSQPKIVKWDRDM

With “CNTO 5303 (CNTO 530 T359N/N361T) (from UniProt P01861 116-325) (Fc fusion)” the fold change of KD against CNTO 530 was 2 fold.
